In IntAct's records for PubMed 20671708:

Target: ago2_human AGO2 (UniProt Q9UKV8)
Sequence (Q9UKV8 whole entry): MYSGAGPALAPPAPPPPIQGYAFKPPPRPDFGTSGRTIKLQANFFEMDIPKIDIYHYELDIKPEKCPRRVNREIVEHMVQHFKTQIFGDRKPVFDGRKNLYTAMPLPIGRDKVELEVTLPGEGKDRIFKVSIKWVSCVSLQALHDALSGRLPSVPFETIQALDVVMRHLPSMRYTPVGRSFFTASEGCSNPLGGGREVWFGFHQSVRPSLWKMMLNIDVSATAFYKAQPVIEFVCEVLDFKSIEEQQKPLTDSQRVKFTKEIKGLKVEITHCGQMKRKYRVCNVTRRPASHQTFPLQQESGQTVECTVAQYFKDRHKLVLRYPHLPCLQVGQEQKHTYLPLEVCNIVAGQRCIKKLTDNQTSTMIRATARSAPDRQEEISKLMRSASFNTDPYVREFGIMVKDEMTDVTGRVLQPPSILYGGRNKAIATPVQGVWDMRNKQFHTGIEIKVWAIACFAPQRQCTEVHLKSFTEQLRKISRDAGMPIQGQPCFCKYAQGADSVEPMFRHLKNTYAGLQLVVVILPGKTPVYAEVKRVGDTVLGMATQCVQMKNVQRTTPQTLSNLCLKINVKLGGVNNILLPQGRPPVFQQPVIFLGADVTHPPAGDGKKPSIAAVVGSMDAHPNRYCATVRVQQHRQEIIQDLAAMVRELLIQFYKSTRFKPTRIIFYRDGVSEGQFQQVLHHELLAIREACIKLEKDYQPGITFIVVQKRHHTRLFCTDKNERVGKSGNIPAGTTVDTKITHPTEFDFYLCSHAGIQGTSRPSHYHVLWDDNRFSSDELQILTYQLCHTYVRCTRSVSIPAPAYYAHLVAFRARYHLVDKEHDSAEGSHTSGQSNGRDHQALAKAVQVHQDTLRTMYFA

Substance | effect of a mutation on the interaction
Leucine-rich repeat serine/threonine-protein kinase 2 (Homo sapiens), Q5S007 G2019S | increasing interaction
Leucine-rich repeat serine/threonine-protein kinase 2 (Homo sapiens), Q5S007 K1906M;D1994A;D2017A | increasing interaction
